Drawing on paper PMC3663649 (2013), this text covers Kd for one molecule.

Test [1] concerns the target T1, H3KC36me3 nucleosomes (recombinant MLA nucleosomes reconstituted on 601 DNA) (Drosophila, UniProt P02299 1-136; P84040 1-103; P84051 1-124; P02283 1-123, H3KC36me3, cysteine at 36 alkylated to a thioether mimic of trimethyl-lysine (H3KC36me3)). Nature of the test: EMSA titration 1 (top).
The target of test [2] is T1, H3KC36me3 nucleosomes (recombinant MLA …). Nature of the test: EMSA titration 2 (bottom). On the technique in general: Mobility shift assays separate free from complexed probe on a gel.

B1: GST-PWWP (PSIP1-PWWP domain, residues 3 to 100, GST fusion) (domain or fragment)
chain: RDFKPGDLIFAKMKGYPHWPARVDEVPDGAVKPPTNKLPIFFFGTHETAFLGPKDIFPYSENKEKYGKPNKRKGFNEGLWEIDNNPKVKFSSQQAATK
Take B1: the Kd (commonly the constant that tells how readily two partners part at equilibrium) in test [1] was 400 nM; in test [2], 600 nM.
